The conditions of test [1]: chemical chromosome doubling, Frei et al. 2018; cited from earlier work.
For test [2], the system named is Background 1 (PHR03 x PH184C). The test can be described thus: Haploid induction cross, haploid embryos scored by absence of paternal YFP, Background 1. It counts as in vivo, Zea mays. How it is done:
(§1) The ears of the transgenic female parent plants were shoot-bagged before silk emergence to avoid any foreign pollen contamination. The silks of the donor ears were pollinated with viable pollen grains collected from the anthers of a haploid inducer parent plant, constituting a “haploid induction cross”.
(§2) Immature ears were harvested approximately 18 days after pollination, surface sterilized in 30% Clorox bleach plus 0.5% Micro detergent for 20 minutes and washed twice with sterile water. Immature embryos obtained from each donor ear comprising a biological replicate for a unique transformation event were plated on a petri dish containing 605B resting medium and incubated at 28° C. under dark conditions for 12-24 hours.
Using the methods described in Examples 2 and 3, T0 transgenic plants hemizygous for RV048759 (SEQ ID NO: 16) or RV027603 (SEQ ID NO: 7) were obtained from a population of transformed immature diploid embryos from two different genetic backgrounds. The first genetic background (hereinafter “Background 1”) was “PHR03 x PH184C” and the second genetic background (hereinafter “Background 2”) was X08D492.
The T0 transgenic plants hemizygous for RV048759 were used as female parent plants and the donor ears fertilized with pollen provided by a pollen donor. The silks of the donor ears were pollinated with viable pollen grains collected from the anthers of a haploid inducer parent plant, constituting a “haploid induction cross”.
(§3) A total of 13 unique events for RV048759 and a total of 7 unique events for RV027603 were analyzed in Background 1. A total of 13 unique events for RV048759 and a total of 11 unique events for RV027603 were analyzed in Background 2.

Test [3] relates to Background 2 (X08D492). Kind of test: Haploid induction cross, haploid embryos scored by absence of paternal YFP, Background 2. It counts as in vivo, Zea mays. How it is done:
as §1, §2
Using the methods described in Examples 2 and 3, T0 transgenic plants hemizygous for RV048759 (SEQ ID NO: 16) or RV027603 (SEQ ID NO: 7) were obtained from a population of transformed immature diploid embryos from two different genetic backgrounds. The first genetic background (hereinafter “Background 1”) was “PHR03 x PH184C” and the second genetic background (hereinafter “Background 2”) was X08D492. […]
as §3

For test [4], the system named is unfertilized egg cell. Kind of test: In vivo genetic chromosome doubling: fertility (mature seed set) of self-pollinated regenerated T1 (D0) plants, Example 3. The arrangement: species or system Zea mays.
Description: Using the methods described in Example 2, T0 transgenic plants hemizygous for RV027603 (SEQ ID NO: 7) were obtained from a population of transformed immature diploid embryos. […] Using methods known in the art, single copy T0 plants were identified and grown to maturity. Upon the transition to flowering, the T0 plants were used as female parent plants to provide a donor ear.
as §1, §2
A total of 8 unique events for RV027603 were analyzed. Per event, two groups of haploid embryos were obtained given the hemizygous T-DNA from RV027603 inherited from the maternal plant. A first group of haploid embryos lacking inheritance of T-DNA from RV027603 was used to regenerate “null T1 plants”. A second group of haploid embryos that inherited a T-DNA from RV027603 was used to regenerate “hemizygous T1 plants”. No artificial chromosome doubling treatment, for example a chemical chromosome doubling treatment or agent, was provided to any of the haploid embryos during the experiment.
To assess the efficacy of in vivo genetic chromosome doubling in response to ZM-ODP2-(266-669) activity, the proportion of regenerated T1 plants capable of producing intact, mature seed was evaluated. The ear of each D0 (T1) plant for both the “null” or “hemizygous” T1 groups were shoot-bagged before silk emergence to avoid any foreign pollen contamination. The silks of the ears for each D0 (T1) plant were self-pollinated with pollen grains collected from the anthers of each D0 (T1) plant. After self-fertilization, the plants were grown to physiological maturity, the ears harvested, and D1 (T2) seed was counted per donor ear from each null and hemizygous plant per group per event. Seed counts for fertile plants were sorted into three categories: a low-range consisting of 1-24 kernels/ear, a medium-range consisting of 25-39 kernels/ear, and a high-range consisting of 40 or more kernels/ear.

Several values for one entry are separate records, joined by “and”; a condition that tells them apart may be missing. Equal entries are not always repeated.

As for `COc1cc2c(c(OC)c1OC)-c1ccc(OC)c(=O)cc1[C@@H](NC(C)=O)CC2` [colchicine, (S)-N-(5,6,7,9-tetrahydro-1,2,3,10-tetramethoxy-9-oxobenzo (a)heptalen-7-yl) acetamide], the “fertility rates for self-pollinated D0 plants” value in test [1] is on record as 15-20%.

B1: ZM-ODP2-(266-668):At-CBF1a: fusion protein (SEQ ID NO: 15) of truncated ZM-ODP2 and C-repeat/DRE binding factor domain At-CBF1a; expressed from plasmid RV048759 under PvEC1 promoter (protein)
chain: MDTFGQRTSIYRGVTRHRWTGRYEAHLWDNSCRREGQTRKGRQVYLGGYDKEEKAARAYDLAALKYWGATTTTNFPVSNYEKELEDMKHMTRQEFVASLRRKSSGFSRGASIYRGVTRHHQHGRWQARIGRVAGNKDLYLGTFSTQEEAAEAYDIAAIKFRGLNAVTNFDMSRYDVKSILDSSALPIGSAAKRLKEAEAAASAQHHHAGVVSYDVGRIASQLGDGGALAAAYGAHYHGAAWPTIAFQPGAASTGLYHPYAQQPMRGGGWCKQEQDHAVIAAAHSLQDLHHLNLGAAGAHDFFSAGQQAAAAAMHGLGSIDSASLEHSTGSNSVVYNGGVGDSNGASAVGGSGGGYMMPMSAAGATTTSAMVSHEQVHARAYDEAKQAAQMGYESYLVNAENNGGGGGGGSGGGGSGGGGSTCAKDIQKAAAEAALAFQDETCDTTTTNHGLDMEETMVEAIYTPEQSEGAFYMDEETMFGMPTLLDNMAEGMLLPPPSVQWNHNYDGEGDGDVSLWSY
For B1, the “average haploid induction rate” value stood at 31.3% in test [2] and 33.9% in test [3].

B2: ZM-ODP2-(266-669): truncated maize Ovule Development Protein 2 polypeptide (SEQ ID NO: 2) encoded by ZM-ODP2 (TR5); expressed from plasmid RV027603 under egg cell promoter (protein)
chain: MDTFGQRTSIYRGVTRHRWTGRYEAHLWDNSCRREGQTRKGRQVYLGGYDKEEKAARAYDLAALKYWGATTTTNFPVSNYEKELEDMKHMTRQEFVASLRRKSSGFSRGASIYRGVTRHHQHGRWQARIGRVAGNKDLYLGTFSTQEEAAEAYDIAAIKFRGLNAVTNFDMSRYDVKSILDSSALPIGSAAKRLKEAEAAASAQHHHAGVVSYDVGRIASQLGDGGALAAAYGAHYHGAAWPTIAFQPGAASTGLYHPYAQQPMRGGGWCKQEQDHAVIAAAHSLQDLHHLNLGAAGAHDFFSAGQQAAAAAMHGLGSIDSASLEHSTGSNSVVYNGGVGDSNGASAVGGSGGGYMMPMSAAGATTTSAMVSHEQVHARAYDEAKQAAQMGYESYLVNAENNGGG
modifications: Zea mays
notes: expressed from plasmid RV027603 under egg cell promoter
Take B2: the “self-pollinated hemizygous D0/T1 plants that produced 40 or more D1/T2 kernels” value in test [4] (% of the hemizygous T1 group) worked out at 83%. Besides, the “average level of fertile hemizygous T1 plants” value in test [4] (hemizygous T1 plants, across 8 events of RV027603, self-pollinated, no artificial chromosome doubling treatment) is recorded as 14.9%. Besides, the “level of fertile null T1 plants (produced mature, intact seed)” value in test [4] (null T1 plants lacking T-DNA of RV027603, same 8 events, self-pollinated) is 3.2% and 3.17%. In test [4] (of 38 self-pollinated D0/T1 plants), the “self-pollinated hemizygous D0/T1 plants that produced 40 or more D1/T2 kernels (count)” value amounted to 31. Moreover, the “average haploid induction rate” value is recorded as 3.5% in test [2] and 15.1% in test [3]. In test [2] (per event), the “Haploid Induction Rate (%)” value was 2.5% and 2.4% and 1.9% and 4.8% and 0.6% and 5.0% and 7.0%.

The values are drawn from patent US20250101453A1, “METHODS OF PARTHENOGENIC HAPLOID INDUCTION AND HAPLOID CHROMOSOME DOUBLING” (PIONEER HI-BRED INTERNATIONAL, INC., priority 2022, published 2025).
